For one experiment, the target named is T1, cynomolgus monkey IL-12 (cynomolgus monkey).
T1 chain 1: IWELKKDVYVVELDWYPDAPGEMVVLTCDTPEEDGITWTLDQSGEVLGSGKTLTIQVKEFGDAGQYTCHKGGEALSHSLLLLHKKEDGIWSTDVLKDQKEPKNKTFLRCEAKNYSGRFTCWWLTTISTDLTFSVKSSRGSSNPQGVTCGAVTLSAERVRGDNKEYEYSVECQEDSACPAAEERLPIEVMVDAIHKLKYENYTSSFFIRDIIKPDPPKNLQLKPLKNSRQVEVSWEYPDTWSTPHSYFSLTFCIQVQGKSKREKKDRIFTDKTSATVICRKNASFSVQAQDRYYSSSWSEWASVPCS
T1 chain 2: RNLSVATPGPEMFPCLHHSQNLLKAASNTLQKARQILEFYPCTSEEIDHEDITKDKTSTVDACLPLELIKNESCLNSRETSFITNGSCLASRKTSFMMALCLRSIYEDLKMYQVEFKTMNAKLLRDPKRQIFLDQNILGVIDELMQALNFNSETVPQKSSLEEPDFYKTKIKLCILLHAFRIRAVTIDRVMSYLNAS
Briefly: cell-based or functional assay.

In experiment [1] the target is T2, recombinant human TL1A (human, UniProt O95150 71-251).
T2 chain: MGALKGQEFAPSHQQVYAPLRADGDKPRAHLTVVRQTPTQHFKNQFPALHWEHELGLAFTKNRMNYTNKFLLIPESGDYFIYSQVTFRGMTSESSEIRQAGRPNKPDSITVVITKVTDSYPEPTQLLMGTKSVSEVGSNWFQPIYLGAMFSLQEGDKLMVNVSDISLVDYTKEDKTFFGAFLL
The experiment can be described thus: cell-based or functional assay.

Another experiment addresses T3, human IL-23 (human, UniProt P29460 23-328; Q9NPF7 20-189).
T3 sequence 1: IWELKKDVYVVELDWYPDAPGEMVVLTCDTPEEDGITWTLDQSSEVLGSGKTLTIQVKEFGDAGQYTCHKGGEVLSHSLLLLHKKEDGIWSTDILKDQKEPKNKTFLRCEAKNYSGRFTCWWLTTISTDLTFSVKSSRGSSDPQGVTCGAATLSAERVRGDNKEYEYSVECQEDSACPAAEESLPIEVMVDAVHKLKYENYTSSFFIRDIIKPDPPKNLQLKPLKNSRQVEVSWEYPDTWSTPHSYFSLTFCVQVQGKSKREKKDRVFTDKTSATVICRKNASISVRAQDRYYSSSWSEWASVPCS
T3 sequence 2: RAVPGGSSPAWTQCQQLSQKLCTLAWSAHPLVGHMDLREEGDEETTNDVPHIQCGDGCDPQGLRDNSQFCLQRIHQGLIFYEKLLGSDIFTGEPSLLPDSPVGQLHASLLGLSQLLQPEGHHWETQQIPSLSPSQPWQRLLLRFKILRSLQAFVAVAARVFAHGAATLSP
Briefly: cell-based or functional assay.

A further experiment has as its target T4, human IL-12 (human, UniProt P29460 23-328; P29459 23-219).
T4 sequence 1: T3 sequence 1
T4 sequence 2: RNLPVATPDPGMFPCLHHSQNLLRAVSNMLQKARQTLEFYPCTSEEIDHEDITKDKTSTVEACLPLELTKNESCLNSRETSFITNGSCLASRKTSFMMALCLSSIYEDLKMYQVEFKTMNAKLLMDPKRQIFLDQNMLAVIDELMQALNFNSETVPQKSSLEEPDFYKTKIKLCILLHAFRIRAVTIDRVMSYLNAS
Briefly: cell-based or functional assay.

A further experiment addresses T5, cynomolgus monkey IL-23 (cynomolgus monkey, limits assumed).
T5 chain 1: T1 chain 1
T5 chain 2: T3 sequence 2 with T12A, H75R, L131P
The experiment can be described thus: cell-based or functional assay.

The target in experiment [2] is T6, recombinant cynomolgus monkey TL1A (cynomolgus monkey, UniProt O95150 72-251 (human entry)).
T6 chain: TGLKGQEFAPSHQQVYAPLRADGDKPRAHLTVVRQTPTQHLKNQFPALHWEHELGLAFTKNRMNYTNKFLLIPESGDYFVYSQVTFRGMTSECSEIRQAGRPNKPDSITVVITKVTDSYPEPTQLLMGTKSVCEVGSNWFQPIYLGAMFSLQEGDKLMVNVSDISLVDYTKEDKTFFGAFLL
Briefly: cell-based or functional assay.

Experiment [3] addresses T7, recombinant human TL1A (human, UniProt O95150 71-251).
T7 chain: T2 chain
Briefly: cell-based or functional assay.

The target in a further experiment is T8, recombinant rat TL1A (rat, UniProt Q8K3Y7 76-252).
T8 sequence: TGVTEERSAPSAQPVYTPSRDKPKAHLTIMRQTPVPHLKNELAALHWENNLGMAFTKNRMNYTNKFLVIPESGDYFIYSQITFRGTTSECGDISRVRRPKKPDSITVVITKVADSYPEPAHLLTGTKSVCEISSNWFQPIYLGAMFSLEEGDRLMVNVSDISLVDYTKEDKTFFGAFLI
Briefly: SPR, Biacore T200, 37 C; biotinylated TL1A captured on Biotin CAPture chip, antibody injected. The protocol:
(§1) In order to determine binding to TL1A, kinetic assays were conducted at 37° C. using a collection rate of 10 Hz on a Biacore™ T200 instrument (GE Healthcare). […] For the analysis of the p40 binding arm, kinetic assays were conducted at 37° C. using a collection rate of 10 Hz on a Biacore™ 8 K+ instrument (GE Healthcare).

Experiment [4] has as its target T7, recombinant human TL1A. The experiment is described as above. On the procedure:
as §1

The target of another experiment is T9, recombinant mouse TL1A (mouse, UniProt Q5UBV8 75-252).
T9 chain: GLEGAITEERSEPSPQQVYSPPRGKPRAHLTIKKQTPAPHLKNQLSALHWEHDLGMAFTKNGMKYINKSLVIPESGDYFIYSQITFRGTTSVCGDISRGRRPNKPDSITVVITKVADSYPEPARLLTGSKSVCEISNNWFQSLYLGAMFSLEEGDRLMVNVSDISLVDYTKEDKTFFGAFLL
The experiment is described as above. The protocol: as §1

The record followed here is US20240059799A1 (Pfizer, published 2024).

Residue numbers refer to the chain shown, from its start. Some results are limits rather than exact numbers.

B1: p40TL1A-0033 (bispecific antibody, human IgG1, kappa)
chain 1: not shown
chain 2: QVQLVQSGAEVKKPGASVKVSCKASGYDYTYYGISWVRQAPGQGLEWMGWISTYNTGTHYAPSLQGRVTMTTDTSTSTAYMELRSLRSDDTAVYYCARESYYGSGAFRGGMDVWGQGTTVTVSSASTKGPSVFPLAPSSKSTSGGTAALGCLVKDYFPEPVTVSWNSGALTSGVHTFPAVLQSSGLYSLSSVVTVPSSSLGTQTYICNVNHKPSNTKVDKKVEPKSC
heavy: EVQLVQSGAEVKKPGESLKISCKGSGYSFTTYWLGWVRQMPGKGLDWIGIMSPVDSDIRYSPSFQGQVTMSVDKSITTAYLQWNSLKASDTAMYYCARRRPGQGYFDFWGQGTLVTVSSASTKGPSVFPLAPSSKSTSGGTAALGCLVKDYFPEPVTVSWNSGALTSGVHTFPAVLQSSGLYSLSSVVTVPSSSLGTQTYICNVNHKPSNTKVDKKVEPKSCDKTHTCPPCPAPEAAGAPSVFLFPPKPKDTLMISRTPEVTCVVVDVSHEDPEVKFNWYVDGVEVHNAKTKPREEQYNSTYRVVSVLTVLHQDWLNGKEYKCKVSNKALPAPIEKTISKAKGQPREPQVCTLPPSREEMTKNQVSLWCLVKGFYPSDIAVEWESNGQPENNYKTTPPVLDSDGSFFLYSKLTVDKSRWQQGNVFSCSVLHEALHSHYTQKSLSLSPGK
light: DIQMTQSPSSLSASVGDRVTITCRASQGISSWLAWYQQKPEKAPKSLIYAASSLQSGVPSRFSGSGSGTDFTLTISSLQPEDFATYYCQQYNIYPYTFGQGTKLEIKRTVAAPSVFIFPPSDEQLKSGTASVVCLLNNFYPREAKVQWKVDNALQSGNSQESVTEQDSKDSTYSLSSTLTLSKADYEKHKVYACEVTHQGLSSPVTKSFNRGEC
notes: KiH modified-Fd bispecific: TL1A VL-CL-Fc (hole), TL1A mFd, p40 HC (knob), p40 LC; LS
Take B1: the “KIT-225 STAT4 phosphorylation, fold-change of potency across species (human against cynomolgus monkey IL-12)” value with cynomolgus monkey IL-12 turned out to be 1.2 fold. In the experiment with recombinant human TL1A [1], the “NF-κB assay in TF-1 reporter cells, neutralization relative to TL1A-0002” value was at most 2 fold. Besides, the “STAT3 activation in human whole blood, fold decreased potency (IC50) compared to p40-0003” value with human IL-23 was around 2.9 fold. The “STAT4 activation in human whole blood, fold decreased potency (IC50) compared to p40-0003” value with human IL-12 is around 2.9 fold. Besides, the “KIT-225 STAT3 phosphorylation, fold-change of potency across species (human against cynomolgus monkey IL-23)” value in the experiment with cynomolgus monkey IL-23 worked out at 1.2 fold. The “NF-κB assay in TF-1 reporter cells, fold-change of neutralization across species (human against cynomolgus monkey TL1A)” value in [2] was determined as 1.7 fold.

B2: p40TL1A-0033 bispecific antibody (bispecific antibody, human IgG1, kappa)
heavy: B1 heavy
light: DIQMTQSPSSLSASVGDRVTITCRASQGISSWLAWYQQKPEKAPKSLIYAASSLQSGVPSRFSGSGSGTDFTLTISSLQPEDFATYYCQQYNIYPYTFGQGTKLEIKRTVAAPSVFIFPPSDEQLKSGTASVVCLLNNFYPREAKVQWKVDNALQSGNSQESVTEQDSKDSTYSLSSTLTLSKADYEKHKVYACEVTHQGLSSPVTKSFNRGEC
chain 1: not shown
chain 2: B1 chain 2
notes: Single cell KiH, modified Fd format; IgG1 effector-function-minimized Fc with LS mutations
For the molecule B2, in the experiment with recombinant human TL1A [3], the “NF-κB assay IC50 (TF-1 reporter cells, 384-well)” value was found to be 0.31 nM. In the experiment with recombinant rat TL1A, the koff is 0.0562 s⁻¹ and the kon was determined as 52400 M⁻¹ s⁻¹. For the same molecule, in the experiment with recombinant human TL1A [4], the Kd was 0.34 nM, the koff amounted to 5.05e-05 s⁻¹ and the kon was 150000 M⁻¹ s⁻¹. In the experiment with recombinant mouse TL1A, the Kd was determined as 288 nM, the koff is 0.00761 s⁻¹ and the kon amounted to 26700 M⁻¹ s⁻¹.
